# According to patent US20210347913A1 (CRISPR THERAPEUTICS, published 2021):
# Numbering of substitutions follows the chain as printed.
# T1: PTK7 on PTK7 positive cell line SaOS-2 (osteosarcoma) (UniProt Q13308 31-1070, limits assumed)
# T1 sequence (looked up): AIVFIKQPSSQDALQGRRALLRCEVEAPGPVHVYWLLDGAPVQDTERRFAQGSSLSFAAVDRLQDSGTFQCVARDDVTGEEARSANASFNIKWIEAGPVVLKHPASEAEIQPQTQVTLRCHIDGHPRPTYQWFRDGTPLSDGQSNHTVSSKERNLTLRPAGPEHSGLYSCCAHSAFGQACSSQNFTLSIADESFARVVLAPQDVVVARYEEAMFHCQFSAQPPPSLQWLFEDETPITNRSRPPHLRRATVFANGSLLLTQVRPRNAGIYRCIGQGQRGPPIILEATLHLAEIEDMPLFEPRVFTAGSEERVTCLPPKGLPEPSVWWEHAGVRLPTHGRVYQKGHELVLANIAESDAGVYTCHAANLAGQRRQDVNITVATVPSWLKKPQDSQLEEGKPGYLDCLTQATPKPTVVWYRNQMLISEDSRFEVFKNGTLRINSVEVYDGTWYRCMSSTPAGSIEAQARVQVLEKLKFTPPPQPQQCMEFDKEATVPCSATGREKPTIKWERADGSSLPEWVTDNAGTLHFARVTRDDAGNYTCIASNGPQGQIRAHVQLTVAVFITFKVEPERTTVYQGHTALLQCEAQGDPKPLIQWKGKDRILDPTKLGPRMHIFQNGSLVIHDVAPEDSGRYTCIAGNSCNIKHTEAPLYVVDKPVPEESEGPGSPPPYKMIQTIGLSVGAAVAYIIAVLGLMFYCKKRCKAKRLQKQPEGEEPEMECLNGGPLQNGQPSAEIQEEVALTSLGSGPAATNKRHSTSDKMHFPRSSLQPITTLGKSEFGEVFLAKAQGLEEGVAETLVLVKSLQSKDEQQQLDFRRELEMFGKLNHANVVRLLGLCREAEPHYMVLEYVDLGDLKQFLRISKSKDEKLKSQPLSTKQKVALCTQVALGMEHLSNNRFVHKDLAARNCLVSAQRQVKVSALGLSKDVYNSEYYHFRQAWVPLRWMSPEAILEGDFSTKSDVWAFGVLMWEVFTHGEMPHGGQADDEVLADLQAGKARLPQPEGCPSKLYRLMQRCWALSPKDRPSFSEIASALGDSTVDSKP
# B1: CTX181.M3 (other)
# chain: QGCTMPPSPRSKVICGSSGGSGGSGGSGGGPLGLAGGSSGQVQLVESGGGVVQPGRSLRLSCAASGFTFSSYGMHWVRQAPGKGLEWVAVIWDDGSNKYYVDSVKGRFTISRDNSKNTLYLQMNSLRAEDTAVYYCARDDYYGSGSFNSYYGTDVWGQGTTVTVSSGGGGSGGGGSGGGGSEIVLTQSPATLSLSPGERATLSCRASQSVSIYLAWYQQKPGQAPRLLIYDASNRATGIPARFSGSGSGTDFTLTISSLEPEDFAVYYCQQRSNWPPFTFGPGTKVDIKSAAAFVPVFLPAKPTTTPAPRPPTPAPTIASQPLSLRPEACRPAAGGAVHTRGLDFACDIYIWAPLAGTCGVLLLSLVITLYCNHRNRSKRSRLLHSDYMNMTPRRPGPTRKHYQPYAPPRDFAAYRSRVKFSRSADAPAYQQGQNQLYNELNLGRREEYDVLDKRRGRDPEMGGKPRRKNPQEGLYNELQKDKMAEAYSEIGMKGERRRGKGHDGLYQGLSTATKDTYDALHMQALPPR
# B2: CTX181.M12 (other)
# chain: B1 chain with P7V, S8H, P9T, R10Y, K12Q, V13W, I14L
# B3: mask peptide M13 (peptide)
# peptide: CTYPPRFHMHWLC
# notes: Found by phage display (Screen 2); in the masked constructs preceded by QG and fused through a cleavable linker
# B4: mask peptide M12 (peptide)
# peptide: CTMPVHTYSQWLC
# notes: as for B3
# B5: mask peptide M14 (peptide)
# peptide: CTHVAQWAIKAFC
# notes: as for B3
# B6: mask peptide M5 (peptide)
# peptide: CTYPSWVAYIRFC
# notes: as for B3
# B7: mask peptide M9 (peptide)
# peptide: CHIGKRPVPCLWI
# notes: as for B3
# B8: mask peptide M6 (peptide)
# peptide: VCTYPPAHRTRFC
# notes: as for B3
# B9: mask peptide M7 (peptide)
# peptide: CTMPYHIHSIGLC
# notes: as for B3
# B10: mask peptide M8 (peptide)
# peptide: WCTIPSSMSIRLC
# notes: as for B3
# B11: mask peptide M11 (peptide)
# peptide: CTMPSHAVASFLC
# notes: as for B3
# B12: mask peptide M10 (peptide)
# peptide: CYIGLRMVPCFHM
# notes: as for B3
# B13: mask peptide M4 (peptide)
# peptide: CTFPNTTMQRTFC
# notes: as for B3
# B14: mask peptide M3 (peptide)
# peptide: CTMPPSPRSKVIC
# notes: as for B3
# Biological target: T1, PTK7 on PTK7 positive cell line SaOS-2 …
# Test: cell-based or functional assay
Binder,IFNγ (pg/mL) at E:T = 1:0.5 [pg/mL],IFNγ (pg/mL) at E:T = 1:1 [pg/mL]
B1,833,799
B2,2420,1770

# Biological target: T1, PTK7 on PTK7 positive cell line SaOS-2 …
# Test: cell-based or functional assay
# Remark: another data set of the same source
Binder,% Cell killing at E:T = 1:0.5 [%],% Cell killing at E:T = 1:1 [%]
B1,39,17.8
B2,29.5,18.5

# Biological target: T2, anti-PTK7 antibody Ab181
# T2 construct: Unmasked parent IgG1kappa; also called Ab181 IgG1kappa
# Test: phage display selection of peptide binders of Ab181 (Screen 2, XnCXnCXn library)
row,Binder,binding result
1,B3,binds
2,B4,binds
3,B5,binds
4,B6,binds
5,B7,binds
6,B8,binds
7,B9,binds
8,B10,binds
9,B11,binds
10,B12,binds
11,B13,binds
12,B14,binds
